Results: PMC314469, “Protein Interaction Networks by Proteome Peptide Scanning” (PLoS Biology, 2004)

T1: Yhr016c SH3 (YSC84_YEAST), P32793
T1 chain: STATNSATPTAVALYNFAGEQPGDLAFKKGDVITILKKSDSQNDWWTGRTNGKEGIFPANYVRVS

T2: Rvs167 SH3 (RV167_YEAST), P39743
T2 chain: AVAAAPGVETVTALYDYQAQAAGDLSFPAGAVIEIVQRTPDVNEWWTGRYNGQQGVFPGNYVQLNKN

T3: Myo5 SH3 (MYO5_YEAST), Q04439
T3 chain: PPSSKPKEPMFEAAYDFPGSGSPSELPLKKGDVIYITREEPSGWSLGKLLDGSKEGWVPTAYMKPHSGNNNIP

T4: Boi1 SH3 (BOI1_YEAST), P38041
T4 chain: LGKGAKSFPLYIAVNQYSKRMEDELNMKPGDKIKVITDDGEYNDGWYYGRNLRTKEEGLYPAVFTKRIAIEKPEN

T5: Boi2 SH3 (BOI2_YEAST), P39969
T5 chain: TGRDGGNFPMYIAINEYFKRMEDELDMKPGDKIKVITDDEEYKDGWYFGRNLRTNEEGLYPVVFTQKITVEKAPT

T6: Yfr024 SH3 (LSB3_YEAST), P43603
T6 chain: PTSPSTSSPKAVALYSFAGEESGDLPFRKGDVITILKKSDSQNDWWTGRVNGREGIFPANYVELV


How the values were obtained:
Test in all cases: SPOT array
[1] = target: T1, Yhr016c SH3 (YSC84_YEAST), P32793
[2] = target: T2, Rvs167 SH3 (RV167_YEAST), P39743
[3] = target: Sho1 SH3 (SHO1_YEAST), P40073
Sequence of Sho1 SH3 (SHO1_YEAST), P40073 (P40073 295-366): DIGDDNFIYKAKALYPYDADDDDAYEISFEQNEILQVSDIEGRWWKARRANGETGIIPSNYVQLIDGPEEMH

[4] = target: T3, Myo5 SH3 (MYO5_YEAST), Q04439
[5] = target: T4, Boi1 SH3 (BOI1_YEAST), P38041
[6] = target: T5, Boi2 SH3 (BOI2_YEAST), P39969
[7] = target: T6, Yfr024 SH3 (LSB3_YEAST), P43603

Row | Binder | normalised SPOT signal, Boehringer light units (BLU); mean over the file's lines of this peptide [1] | normalised SPOT signal, Boehringer light units (BLU); mean over the file's lines of this peptide [2] | normalised SPOT signal, Boehringer light units (BLU); mean over the file's lines of this peptide [3] | normalised SPOT signal, Boehringer light units (BLU); mean over the file's lines of this peptide [4] | normalised SPOT signal, Boehringer light units (BLU); mean over the file's lines of this peptide [5] | normalised SPOT signal, Boehringer light units (BLU); mean over the file's lines of this peptide [6] | normalised SPOT signal, Boehringer light units (BLU); mean over the file's lines of this peptide [7]
1 | WFDLKGLPRQPEPL [YFL041W 550-563] | 201 | 278 | 19600 | 102 | 78.2 | 409 | 4860
2 | WFILKLFPHEPIEG [YMR034C 292-305] | 131 | 43.8 | 31.7 | 1270 | 12.8 | 30.6 | 1350
3 | WLDEKRIPSTPIDY [YPR145W 196-209] | 179 | 897 | 81.5 | 163 | 11.5 | 962 | 1670
4 | WLDEKRIPSTPVDY [YGR124W 196-209] | 278 | 177 | 191 | 240 | 107 | 184 | 3060
5 | WLGNKYDPENPFND [YBL088C 600-613] | 125 | 149 | 62.8 | 88.8 | 66.1 | 70.7 | 862
6 | WRWARDTPRAPGLH [YCR020C 147-160] | 1970 | 1330 | 2030 | 2100 | 46.7 | 3730 | 7740
7 | WSQMRMNPTNPDWI [YPR074C 45-58] | 1270 | 892 | 132 | 81.2 | 115 | 1320 | 3220
8 | YAVDKIMPPTPAKK [YAL024C 308-321] | 22 | 71.5 | 112 | 110 | 44.9 | 2 | 512
9 | YAVGRIVPDSPTYD [YBL035C 295-308] | 257 | 127 | 39.9 | 189 | 87.3 | 33.2 | 159
10 | YSPWKLSPLLPILY [YCR001W 27-40] | 40.4 | 66.5 | 63.6 | 176 | 88.3 | 99.3 | 514
11 | YDLTRFLPNHPGGQ [YML054C 114-127] | 22.5 | 20.5 | 59.7 | 80.6 | 59.5 | 46.2 | 147
12 | YEGPRGAPGMPEML [YJR016C 463-476] | 15.4 | 63.3 | 39.6 | 166 | 64 | 26.3 | 131
13 | YFVKKIRPGNPLTK [YJL149W 279-292] | 92.2 | 220 | 139 | 508 | 410 | 58.3 | 244
14 | YGDNKKNPESPESV [YDL133W 210-223] | 19.5 | 3.3 | 25.3 | 147 | 79.4 | 8.4 | 13.3
15 | YGSEKGSPAGPSAV [YDR429C 58-71] | 8.8 | 28.6 | 46.4 | 50.3 | 65.1 | 40 | 13.4
16 | YILPKTDPRSPYYI [YPR115W 96-109] | 27.8 | 176 | 19.5 | 188 | 222 | 44.9 | 113
